# Source: paper PMC7370943
# What was measured:
# [1] = target: recombinant human IL-13 (human) (UniProt P35225)
# [2] = target: T1, recombinant human IL-33 (human)
# T1 sequence (O95760 whole entry, looked up): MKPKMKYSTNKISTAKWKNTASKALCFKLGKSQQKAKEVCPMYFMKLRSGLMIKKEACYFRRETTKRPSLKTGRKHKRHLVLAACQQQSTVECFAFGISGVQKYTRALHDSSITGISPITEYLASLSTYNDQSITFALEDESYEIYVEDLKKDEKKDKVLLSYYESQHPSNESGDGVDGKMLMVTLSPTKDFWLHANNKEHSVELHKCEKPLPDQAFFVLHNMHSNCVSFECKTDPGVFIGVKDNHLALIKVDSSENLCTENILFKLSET
# UniProt P35225, sequence (P35225 25-146): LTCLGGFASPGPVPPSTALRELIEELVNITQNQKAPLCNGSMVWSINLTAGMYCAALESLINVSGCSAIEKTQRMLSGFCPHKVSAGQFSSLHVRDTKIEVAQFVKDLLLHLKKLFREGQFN
IC50 of inhibition of IL-13-induced STAT6-dependent luciferase activity in HEK293T cells transfected with human IL-4Rα and IL-13Rα1; cytokine pre-incubated with the trap [1] [nM],IC50 of inhibition of IL-33-induced NF-κB luciferase reporter activity in HEK293T cells transfected with human ST2; IL-33 pre-incubated 30 min with the trap (blocks IL-33 acting on ST2 of the cells) [2] [nM],Substance
0.434,–,human IL-4/13trap (from UniProt P78552 22-343; P24394 26-232) (receptor)
–,0.194,human IL-33trap with 7xGGS linker (sIL-1RAcP-7xGGS-sST2) (from UniProt Q01638 19-328) (receptor)
–,0.067,human IL-33trap with 7xGGS linker and human IgG1 Fc (from UniProt Q9NPH3 21-367; Q01638 19-328) (Fc fusion)
–,0.042,human IL-33trap with 12xGGS linker (sIL-1RAcP-12xGGS-sST2) (from UniProt Q01638 19-328) (receptor)
–,0.057,human IL-33trap with 12xGGS linker and human IgG1 Fc (from UniProt Q9NPH3 21-367; Q01638 19-328) (Fc fusion)
–,0.748,human IL-33trap without Fc and GGS linker (sIL-1RAcP-sST2) (from UniProt Q01638 19-328) (receptor)
–,0.09,human IL-33trap without GGS linker fused to human IgG1 Fc (sIL-1RAcP-sST2-Fc) (from UniProt Q01638 19-328) (Fc fusion)
